The text below walks through data of PMC10786891, “Massively parallel profiling of RNA-targeting CRISPR-Cas13d”.

For orientation: Kd means the free concentration of one partner at which half of the binding sites on the other are occupied at equilibrium, for simple one-to-one binding. A lower Kd goes with a tighter complex.

B1: target 1 MT 5'PFS UAA 3'PFS AAU (mixed)
RNA 1: CACCCGUGCAAAAAUGCAGGGGUCUAAAACUGAGCGGAUAACCUCUCUAUGG
RNA 2: GGGAAUGGAUCCACAUCUACGAAUUCUAACCAUAGAGAGGUUAUCCGCUCAAAUAGAUCGGAAGAGCACACGU
B2: target 1 A9U,U19A (mixed)
RNA 1: CACCCGUGCAAAAAUGCAGGGGUCUAAAACUGAGCGGAUAACCUCUCUAUGG
RNA 2: GGGAAUGGAUCCACAUCUACGAAUUCGUACCAAAGAGAGGUUUUCCGCUCACCGAGAUCGGAAGAGCACACGU
B3: target 1 MT 5'PFS GUC 3'PFS UAG (mixed)
RNA 1: CACCCGUGCAAAAAUGCAGGGGUCUAAAACUGAGCGGAUAACCUCUCUAUGG
RNA 2: GGGAAUGGAUCCACAUCUACGAAUUCGUCCCAUAGAGAGGUUAUCCGCUCAUAGAGAUCGGAAGAGCACACGU
B4: target 1 A14C,A16G (mixed)
RNA 1: CACCCGUGCAAAAAUGCAGGGGUCUAAAACUGAGCGGAUAACCUCUCUAUGG
RNA 2: GGGAAUGGAUCCACAUCUACGAAUUCGUACCAUAGGGCGGUUAUCCGCUCACCGAGAUCGGAAGAGCACACGU
B5: target 1 MT 5'PFS GCU 3'PFS CGU (mixed)
RNA 1: CACCCGUGCAAAAAUGCAGGGGUCUAAAACUGAGCGGAUAACCUCUCUAUGG
RNA 2: GGGAAUGGAUCCACAUCUACGAAUUCGCUCCAUAGAGAGGUUAUCCGCUCACGUAGAUCGGAAGAGCACACGU
B6: target 1 MT 5'PFS UAA 3'PFS AAC (mixed)
RNA 1: CACCCGUGCAAAAAUGCAGGGGUCUAAAACUGAGCGGAUAACCUCUCUAUGG
RNA 2: GGGAAUGGAUCCACAUCUACGAAUUCUAACCAUAGAGAGGUUAUCCGCUCAAACAGAUCGGAAGAGCACACGU
B7: target 1 MT 5'PFS AUA 3'PFS CGG (mixed)
RNA 1: CACCCGUGCAAAAAUGCAGGGGUCUAAAACUGAGCGGAUAACCUCUCUAUGG
RNA 2: GGGAAUGGAUCCACAUCUACGAAUUCAUACCAUAGAGAGGUUAUCCGCUCACGGAGAUCGGAAGAGCACACGU
B8: target 1 MT 5'PFS AUG 3'PFS CGG (mixed)
RNA 1: CACCCGUGCAAAAAUGCAGGGGUCUAAAACUGAGCGGAUAACCUCUCUAUGG
RNA 2: GGGAAUGGAUCCACAUCUACGAAUUCAUGCCAUAGAGAGGUUAUCCGCUCACGGAGAUCGGAAGAGCACACGU
B9: target 1 MT 5'PFS GCU 3'PFS CGC (mixed)
RNA 1: CACCCGUGCAAAAAUGCAGGGGUCUAAAACUGAGCGGAUAACCUCUCUAUGG
RNA 2: GGGAAUGGAUCCACAUCUACGAAUUCGCUCCAUAGAGAGGUUAUCCGCUCACGCAGAUCGGAAGAGCACACGU
B10: target 1 MT 5'PFS AUA 3'PFS AGG (mixed)
RNA 1: CACCCGUGCAAAAAUGCAGGGGUCUAAAACUGAGCGGAUAACCUCUCUAUGG
RNA 2: GGGAAUGGAUCCACAUCUACGAAUUCAUACCAUAGAGAGGUUAUCCGCUCAAGGAGAUCGGAAGAGCACACGU
B11: target 1 MT 5'PFS GUC 3'PFS UAA (mixed)
RNA 1: CACCCGUGCAAAAAUGCAGGGGUCUAAAACUGAGCGGAUAACCUCUCUAUGG
RNA 2: GGGAAUGGAUCCACAUCUACGAAUUCGUCCCAUAGAGAGGUUAUCCGCUCAUAAAGAUCGGAAGAGCACACGU
B12: target 1 MT 5'PFS GUC 3'PFS UAU (mixed)
RNA 1: CACCCGUGCAAAAAUGCAGGGGUCUAAAACUGAGCGGAUAACCUCUCUAUGG
RNA 2: GGGAAUGGAUCCACAUCUACGAAUUCGUCCCAUAGAGAGGUUAUCCGCUCAUAUAGAUCGGAAGAGCACACGU
B13: target 1 MT 5'PFS UAA 3'PFS AAG (mixed)
RNA 1: CACCCGUGCAAAAAUGCAGGGGUCUAAAACUGAGCGGAUAACCUCUCUAUGG
RNA 2: GGGAAUGGAUCCACAUCUACGAAUUCUAACCAUAGAGAGGUUAUCCGCUCAAAGAGAUCGGAAGAGCACACGU
B14: target 1 MT 5'PFS GCA 3'PFS UUA (mixed)
RNA 1: CACCCGUGCAAAAAUGCAGGGGUCUAAAACUGAGCGGAUAACCUCUCUAUGG
RNA 2: GGGAAUGGAUCCACAUCUACGAAUUCGCACCAUAGAGAGGUUAUCCGCUCAUUAAGAUCGGAAGAGCACACGU
B15: target 1 insU 3' of 15,insG 3' of 6 (mixed)
RNA 1: CACCCGUGCAAAAAUGCAGGGGUCUAAAACUGAGCGGAUAACCUCUCUAUGG
RNA 2: GGGAAUGGAUCCACAUCUACGAAUUCGUACCAUAGAGUAGGUUAUCCGGCUCACCGAGAUCGGAAGAGCACACGU
B16: target 1 U11C,C21U (mixed)
RNA 1: CACCCGUGCAAAAAUGCAGGGGUCUAAAACUGAGCGGAUAACCUCUCUAUGG
RNA 2: GGGAAUGGAUCCACAUCUACGAAUUCGUACUAUAGAGAGGCUAUCCGCUCACCGAGAUCGGAAGAGCACACGU
B17: target 1 MT 5'PFS CCG 3'PFS AUC (mixed)
RNA 1: CACCCGUGCAAAAAUGCAGGGGUCUAAAACUGAGCGGAUAACCUCUCUAUGG
RNA 2: GGGAAUGGAUCCACAUCUACGAAUUCCCGCCAUAGAGAGGUUAUCCGCUCAAUCAGAUCGGAAGAGCACACGU
B18: target 1 MT 5'PFS GUC 3'PFS UAC (mixed)
RNA 1: CACCCGUGCAAAAAUGCAGGGGUCUAAAACUGAGCGGAUAACCUCUCUAUGG
RNA 2: GGGAAUGGAUCCACAUCUACGAAUUCGUCCCAUAGAGAGGUUAUCCGCUCAUACAGAUCGGAAGAGCACACGU
B19: target 1 MT 5'PFS GUC 3'PFS ACA (mixed)
RNA 1: CACCCGUGCAAAAAUGCAGGGGUCUAAAACUGAGCGGAUAACCUCUCUAUGG
RNA 2: GGGAAUGGAUCCACAUCUACGAAUUCGUCCCAUAGAGAGGUUAUCCGCUCAACAAGAUCGGAAGAGCACACGU
B20: target 1 MT 5'PFS GUG 3'PFS GGA (mixed)
RNA 1: CACCCGUGCAAAAAUGCAGGGGUCUAAAACUGAGCGGAUAACCUCUCUAUGG
RNA 2: GGGAAUGGAUCCACAUCUACGAAUUCGUGCCAUAGAGAGGUUAUCCGCUCAGGAAGAUCGGAAGAGCACACGU
B21: target 1 MT 5'PFS GUC 3'PFS ACU (mixed)
RNA 1: CACCCGUGCAAAAAUGCAGGGGUCUAAAACUGAGCGGAUAACCUCUCUAUGG
RNA 2: GGGAAUGGAUCCACAUCUACGAAUUCGUCCCAUAGAGAGGUUAUCCGCUCAACUAGAUCGGAAGAGCACACGU
B22: target 1 MT 5'PFS AAG 3'PFS CUG (mixed)
RNA 1: CACCCGUGCAAAAAUGCAGGGGUCUAAAACUGAGCGGAUAACCUCUCUAUGG
RNA 2: GGGAAUGGAUCCACAUCUACGAAUUCAAGCCAUAGAGAGGUUAUCCGCUCACUGAGAUCGGAAGAGCACACGU
B23: target 1 MT 5'PFS GCU 3'PFS CGA (mixed)
RNA 1: CACCCGUGCAAAAAUGCAGGGGUCUAAAACUGAGCGGAUAACCUCUCUAUGG
RNA 2: GGGAAUGGAUCCACAUCUACGAAUUCGCUCCAUAGAGAGGUUAUCCGCUCACGAAGAUCGGAAGAGCACACGU
B24: target 1 MT 5'PFS UAA 3'PFS AAA (mixed)
RNA 1: CACCCGUGCAAAAAUGCAGGGGUCUAAAACUGAGCGGAUAACCUCUCUAUGG
RNA 2: GGGAAUGGAUCCACAUCUACGAAUUCUAACCAUAGAGAGGUUAUCCGCUCAAAAAGAUCGGAAGAGCACACGU
B25: target 1 MT 5'PFS GCA 3'PFS UUC (mixed)
RNA 1: CACCCGUGCAAAAAUGCAGGGGUCUAAAACUGAGCGGAUAACCUCUCUAUGG
RNA 2: GGGAAUGGAUCCACAUCUACGAAUUCGCACCAUAGAGAGGUUAUCCGCUCAUUCAGAUCGGAAGAGCACACGU
B26: target 1 MT 5'PFS AAG 3'PFS CUC (mixed)
RNA 1: CACCCGUGCAAAAAUGCAGGGGUCUAAAACUGAGCGGAUAACCUCUCUAUGG
RNA 2: GGGAAUGGAUCCACAUCUACGAAUUCAAGCCAUAGAGAGGUUAUCCGCUCACUCAGAUCGGAAGAGCACACGU
B27: target 1 MT 5'PFS CCA 3'PFS AAU (mixed)
RNA 1: CACCCGUGCAAAAAUGCAGGGGUCUAAAACUGAGCGGAUAACCUCUCUAUGG
RNA 2: GGGAAUGGAUCCACAUCUACGAAUUCCCACCAUAGAGAGGUUAUCCGCUCAAAUAGAUCGGAAGAGCACACGU

In this data set the target is T1, EsCas13d, nuclease-dead (Eubacterium siraeum, UniProt B0MS50, R295A;H300A;R849A;H854A).
T1 sequence: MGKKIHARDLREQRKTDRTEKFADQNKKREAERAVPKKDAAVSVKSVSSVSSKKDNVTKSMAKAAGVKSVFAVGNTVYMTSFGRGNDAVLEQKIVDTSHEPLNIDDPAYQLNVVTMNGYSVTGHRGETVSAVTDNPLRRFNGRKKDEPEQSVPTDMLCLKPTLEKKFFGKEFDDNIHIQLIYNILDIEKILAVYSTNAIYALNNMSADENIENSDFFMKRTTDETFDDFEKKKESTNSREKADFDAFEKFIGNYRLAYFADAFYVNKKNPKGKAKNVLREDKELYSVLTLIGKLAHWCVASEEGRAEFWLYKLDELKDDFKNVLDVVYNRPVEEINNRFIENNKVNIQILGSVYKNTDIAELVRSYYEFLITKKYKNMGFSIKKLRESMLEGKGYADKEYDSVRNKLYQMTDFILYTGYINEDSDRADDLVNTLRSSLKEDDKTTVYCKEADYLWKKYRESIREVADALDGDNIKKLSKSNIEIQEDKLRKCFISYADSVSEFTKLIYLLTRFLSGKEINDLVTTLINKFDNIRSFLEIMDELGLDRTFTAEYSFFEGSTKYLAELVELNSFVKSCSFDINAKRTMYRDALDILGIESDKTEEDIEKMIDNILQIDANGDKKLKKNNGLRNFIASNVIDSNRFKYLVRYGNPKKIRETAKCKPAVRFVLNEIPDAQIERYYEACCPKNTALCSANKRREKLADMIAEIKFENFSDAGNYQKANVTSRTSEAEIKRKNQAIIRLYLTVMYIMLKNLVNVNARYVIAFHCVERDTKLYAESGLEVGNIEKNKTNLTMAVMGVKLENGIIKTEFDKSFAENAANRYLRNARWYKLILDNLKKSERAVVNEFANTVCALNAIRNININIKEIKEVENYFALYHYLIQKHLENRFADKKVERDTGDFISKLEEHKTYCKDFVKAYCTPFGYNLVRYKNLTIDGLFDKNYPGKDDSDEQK
In words: crRNA (strand 1, pre-loaded); Mg2+; 40 mM Tris-HCl pH 7.5, 150 mM NaCl, 6 mM MgCl2, 1 mM DTT, 0.1% Tween-20, 0.2 mg/ml BSA; 25 C; 10 min per concentration, then washed. Conditions: tags: His6-TwinStrep-SUMO cleaved; N-terminal SNAP kept (SNAP-Surface 488); label: 3' end held by stalled T7 RNA polymerase.
With B1, the Kd worked out at 55 ± 16 nM. For B2 the value was 52 ± 10 nM; for B3, 17.6 ± 3.35 nM. To B4 belongs approximately 90 nM; to B5, 33.5 ± 8 nM. In turn, B6 registered a dissociation constant (Kd) of 40 ± 11 nM. B7 yielded an equilibrium dissociation constant (Kd) of 27 ± 6.5 nM. For B8 the value was 47.5 ± 22.5 nM. To B9 belongs 42.5 ± 15 nM. For B10 the value was approximately 90 nM; for B11, 16 ± 4.3 nM; for B12, 16.1 ± 3.3 nM.

B13: the affinity, expressed as Kd, was 66 ± 26 nM. For B14 the value was 7.65 ± 1.2 nM; for B15, 14.9 ± 0.8 nM. Turning to B16, the dissociation constant Kd is 9.9 ± 0.4 nM. This Kd is about 1.5-fold lower than that of the molecule before. For B17 the value was approximately 8.65 nM. To B18 belongs 15.1 ± 3.8 nM; to B19, approximately 56 nM; to B20, 20.3 ± 2.5 nM. In turn, B21 gave a Kd of 16.9 ± 2.05 nM.

B22 yielded a Kd of 16 ± 5 nM. As to B23, the Kd came out at 49.5 ± 17 nM.

Turning to B24, the Kd was 47 ± 15.5 nM. To B25 belongs 9.95 ± 1.2 nM; to B26, 38.5 ± 13.5 nM.

B27 registered a Kd of 7.3 ± 2.35 nM.
